{"source": "paper PMC3057930", "about": "(Proteins, 2010)", "assay_in_all_cases": "fluorescence polarisation", "key": {"[1]": {"biological_target": "T1, Paramecium calmodulin, full-length (CaM_(1-148)) (Paramecium, UniProt P07463 1-149)"}, "[2]": {"biological_target": "T2, Paramecium calmodulin N-domain fragment (CaM_(1-80)) (Paramecium, UniProt P07463 2-81)"}, "[3]": {"biological_target": "T3, Paramecium calmodulin C-domain fragment (CaM_(76-148)) (Paramecium, UniProt P07463 77-149)"}, "[4]": {"biological_target": "T1, Paramecium calmodulin, full-length …", "remark": "listed apart in the source"}, "[5]": {"biological_target": "T2, Paramecium calmodulin N-domain fragment …", "remark": "listed apart in the source"}, "[6]": {"biological_target": "T3, Paramecium calmodulin C-domain fragment …", "remark": "listed apart in the source"}}, "note": "Like-named read-outs stand apart in the source and are kept apart here. No end group written: not given here. *: point of attachment. FITC = O=C1OC2(c3ccc(O)cc3Oc3cc(O)ccc32)c2ccc(NC(=S)*)cc21", "data": [{"binder": "{FITC}-ARKEIIRNKIRAIGKMARVFSVLR", "values": [{"measurement": "Kd", "setting": "[1]", "result": "≤ 0.001", "unit": "µM"}, {"measurement": "Kd", "setting": "[2]", "result": 7.06, "unit": "µM"}, {"measurement": "Kd", "setting": "[3]", "result": 0.96, "unit": "µM"}, {"measurement": "Kd", "setting": "[4]", "result": 25, "unit": "µM"}, {"measurement": "Kd", "setting": "[5]", "result": 600, "unit": "µM"}, {"measurement": "Kd", "setting": "[6]", "result": 44.1, "unit": "µM"}]}]}
